In article PMC3561105, “A Quartet of PIF bHLH Factors Provides a Transcriptionally Centered Signaling Hub That Regulates Seedling Morphogenesis through Differential Expression-Patterning of Shared Target Genes in Arabidopsis”:

T1: GST-PIF3-Flag (Arabidopsis thaliana, UniProt O80536 1-524)
T1 sequence: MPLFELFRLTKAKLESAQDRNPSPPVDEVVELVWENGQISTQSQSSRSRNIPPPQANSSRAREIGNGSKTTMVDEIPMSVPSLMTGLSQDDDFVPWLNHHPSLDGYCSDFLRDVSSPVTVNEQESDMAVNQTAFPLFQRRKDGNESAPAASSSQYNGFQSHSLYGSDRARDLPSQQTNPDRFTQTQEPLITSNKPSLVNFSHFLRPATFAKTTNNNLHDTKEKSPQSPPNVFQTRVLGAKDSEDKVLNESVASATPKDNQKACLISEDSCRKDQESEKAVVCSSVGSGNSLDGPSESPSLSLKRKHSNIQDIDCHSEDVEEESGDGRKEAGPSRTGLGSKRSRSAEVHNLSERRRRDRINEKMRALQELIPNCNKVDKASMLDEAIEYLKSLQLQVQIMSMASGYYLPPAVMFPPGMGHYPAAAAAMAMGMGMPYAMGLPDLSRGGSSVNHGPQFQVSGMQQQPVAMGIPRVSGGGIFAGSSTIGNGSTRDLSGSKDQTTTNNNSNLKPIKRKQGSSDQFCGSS


Assays:
GST-PIF3-Flag [1] = target: T1, GST-PIF3-Flag; assay: DPI-ELISA; DPI-ELISA: TBS-T (20 mM Tris-HCl pH 7.5, 180 mM NaCl, 0.1% Tween 20), 5% milk block, 2 pmol probe/well, 100 ng protein, 1 h, competitor 2/10/50 pmol; EMSA: 100; conditions: protein: recombinant, tags: N-term GST, chain copies: 2, label: 5' biotin on one strand (probe), blunt
GST-PIF3-Flag [2] = target: T1, GST-PIF3-Flag; assay: competition; EMSA; no competition; DPI-ELISA: TBS-T (20 mM Tris-HCl pH 7.5, 180 mM NaCl, 0.1% Tween 20), 5% milk block, 2 pmol probe/well, 100 ng protein, 1 h, competitor 2/10/50 pmol; EMSA: 100; conditions: protein: recombinant, tags: N-term GST, chain copies: 2, blunt
GST-PIF3-Flag [3] = target: T1, GST-PIF3-Flag; assay: EMSA; DPI-ELISA: TBS-T (20 mM Tris-HCl pH 7.5, 180 mM NaCl, 0.1% Tween 20), 5% milk block, 2 pmol probe/well, 100 ng protein, 1 h, competitor 2/10/50 pmol; EMSA: 100; conditions: protein: recombinant, tags: N-term GST, chain copies: 2, label: 5' biotin on one strand (probe), blunt
GST-PIF3-Flag [4] = target: T1, GST-PIF3-Flag; assay: competition; EMSA; competes similar to WT; DPI-ELISA: TBS-T (20 mM Tris-HCl pH 7.5, 180 mM NaCl, 0.1% Tween 20), 5% milk block, 2 pmol probe/well, 100 ng protein, 1 h, competitor 2/10/50 pmol; EMSA: 100; conditions: protein: recombinant, tags: N-term GST, chain copies: 2, blunt

Binder	binding result (GST-PIF3-Flag [1])	binding result (GST-PIF3-Flag [4])	other results
IBH1 WT (dsDNA) DNA 1: AGGCCATAGCCATGTGCCTTCATGTGGTGGTTGGCC DNA 2: GGCCAACCACCACATGAAGGCACATGGCTATGGCCT	binds	–	–
HB2 mut4 (G-box and PBE-box) (dsDNA) DNA 1: GGGTCAGATCCACGGGAAGTTCCCATGCTTTCCATGC DNA 2: GCATGGAAAGCATGGGAACTTCCCGTGGATCTGACCC	–	–	binding result (GST-PIF3-Flag [2]): no binding
ATHB-2 (HB2) WT (dsDNA) DNA 1: GGGTCAGATCCACGTGAAGTTCACATGCTTTCCATGC DNA 2: GCATGGAAAGCATGTGAACTTCACGTGGATCTGACCC	–	–	binding result (GST-PIF3-Flag [3]): binds
HB2 mut5 (PBE-box) (dsDNA) DNA 1: GGGTCAGATCCACGTGAAGTTCCCATGCTTTCCATGC DNA 2: GCATGGAAAGCATGGGAACTTCACGTGGATCTGACCC	–	binds	–
HB2 mut2 (G-box) (dsDNA) DNA 1: GGGTCAGATCCACGGGAAGTTCACATGCTTTCCATGC DNA 2: GCATGGAAAGCATGTGAACTTCCCGTGGATCTGACCC	–	–	binding result (GST-PIF3-Flag [2]): no binding
IAA2 WT (dsDNA) DNA 1: TGAGGCCGCCCATGTGGACACGACTC DNA 2: GAGTCGTGTCCACATGGGCGGCCTCA	binds	–	–
RGA1 WT (dsDNA) DNA 1: GACCCATTAACACGTGGATCCATCACGTGCTGTCAGTTT DNA 2: AAACTGACAGCACGTGATGGATCCACGTGTTAATGGGTC	binds	–	–
RGA1 mut3 (2nd G-box) (dsDNA) DNA 1: GACCCATTAACACGTGGATCCATCACGGGCTGTCAGTTT DNA 2: AAACTGACAGCCCGTGATGGATCCACGTGTTAATGGGTC	–	binds	–
RGA1 mut2 (1st G-box) (dsDNA) DNA 1: GACCCATTAACACGGGGATCCATCACGTGCTGTCAGTTT DNA 2: AAACTGACAGCACGTGATGGATCCCCGTGTTAATGGGTC	–	binds	–
PHYB WT (dsDNA) DNA 1: ACCATTAGCCCACGTGATCTTGGGCC DNA 2: GGCCCAAGATCACGTGGGCTAATGGT	binds	–	–
AT4G30410 (bHLH159) WT (dsDNA) DNA 1: ATAGGAGAAGCACATGCATGCACATGCTACGAATGG DNA 2: CCATTCGTAGCATGTGCATGCATGTGCTTCTCCTAT	binds	–	–
PIL1b mut2 (1st G-box) (dsDNA) DNA 1: ACGCGGCATTCACGGGAAGTGCACGTGAACTTGGCCA DNA 2: TGGCCAAGTTCACGTGCACTTCCCGTGAATGCCGCGT	–	binds	–
PIL1b mut3 (2nd G-box) (dsDNA) DNA 1: ACGCGGCATTCACGTGAAGTGCACGGGAACTTGGCCA DNA 2: TGGCCAAGTTCCCGTGCACTTCACGTGAATGCCGCGT	–	binds	–
PIL1b WT (dsDNA) DNA 1: ACGCGGCATTCACGTGAAGTGCACGTGAACTTGGCCA DNA 2: TGGCCAAGTTCACGTGCACTTCACGTGAATGCCGCGT	–	–	binding result (GST-PIF3-Flag [3]): binds
